From US20190100594A1 (INHIBRX, published 2019)
Numbering of substitutions follows the chain as printed. Like-named read-outs stand apart in the source and are kept apart here.

How the values were obtained:
[1] = target: T1, GITR expressed on CHO cells (Homo sapiens (Human), UniProt Q9Y5U5 26-241); assay: flow cytometry on GITR-expressing CHO cells, MFI-FL4
T1 construct: also called glucocorticoid-induced TNFR-related protein; TNFRSF18
T1 sequence: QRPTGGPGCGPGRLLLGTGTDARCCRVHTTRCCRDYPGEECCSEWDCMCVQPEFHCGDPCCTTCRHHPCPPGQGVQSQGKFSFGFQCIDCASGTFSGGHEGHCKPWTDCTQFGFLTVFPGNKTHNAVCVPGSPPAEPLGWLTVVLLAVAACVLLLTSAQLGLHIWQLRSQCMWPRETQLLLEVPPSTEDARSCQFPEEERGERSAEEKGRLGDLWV

[2] = target: T1, GITR expressed on CHO cells; assay: flow cytometry competition on GITR-expressing CHO cells; blocked ligand recombinant GITRL; readout GITRL bound, MFI-FL1
Description: Briefly, in these studies, a flow cytometry assay using GITR expressing CHO cells and recombinant GITRL was used to implement to assess blocking capacity. The GITR antibody, TRX-518, was used as a control for these studies.

[3] = target: T2, human GITR-CHO (human, UniProt Q9Y5U5); assay: flow cytometry on human GITR-CHO cells
T2 construct: expressed on the surface of CHO cells, construct not described; also called human GITR expressed on the surface of CHO cells
T2 sequence (looked up): T1 sequence

[4] = target: T3, cyno GITR-CHO (cynomolgus monkey); assay: flow cytometry on cyno GITR-CHO cells
T3 construct: expressed on the surface of CHO cells, construct not described; also called cynomolgus GITR expressed on the surface of CHO cells

[5] = target: T2, human GITR-CHO; assay: flow cytometry on human GITR-CHO cells; remark: listed apart in the source
[6] = target: T3, cyno GITR-CHO; assay: flow cytometry on cyno GITR-CHO cells; remark: listed apart in the source
[7] = target: T2, human GITR-CHO; assay: flow cytometry on human GITR-CHO cells; remark: listed apart in the source

B1: 2A1 (VHH, not shown: a dimerising Fc or GST; small tags and cut ends)
VHH: EVQLVQSGGGLVQPGGSLRLSCAASGNIFSIDAMGWYRQAPGRQRELVAQIPGGPTDSVKGRFTVSGNSAKNTGYLQMNTLKPEDTAVYYCNIVASTSWGSPSKVYWGQGTQATVSS
EC50 (read off the curve) [1]: ~10 nM
IC50 (read off the curve) [2]: ~10 nM

B2: F05 (VHH, not shown: a dimerising Fc or GST; small tags and cut ends)
VHH: QVQLVQSGGGLVQAGGSLRLSCTASGSIFSINHMAWYRQAPGKQREMVAHITGGASTKYADSVKGRFTISRDSALNTVSLRMNSLKPEDTAVYYCNAEVNEGWNADYYDVWGQGTQVTVSS
EC50 (read off the curve) [1]: ~4 nM
IC50 (read off the curve) [2]: ~4 nM

B3: hzC06v3.6 (VHH)
VHH: EVQLLESGGGEVQPGGSLRLSCAASGSVFSIDAMGWYRQAPGKQRELVAVLSGISSAKYAESVKGRFTISRASAPNTVYLQMSSLRAEDTAVYYCYADVSTGWGRDAHGYWGQGTLVTV
EC50 (read off the curve) [3]: ~4 nM
EC50 (read off the curve) [4]: ~4 nM

B4: C06 (VHH, not shown: a dimerising Fc or GST; small tags and cut ends)
VHH: QVQLQESGGGLVQAGGSLRLSCAASGSVFSIDAMGWYRLAPGQQRELVAVLNGISSAKYADSVKGRFTISGDSAKNAVYLQMDGLKPEDTAVYYCYADVSTGWGRDAHGYWGQGTQVTVSS
EC50 (read off the curve) [1]: ~3 nM
IC50 (read off the curve) [2]: ~2 nM

B5: hzCC04v5 (VHH)
VHH: EVQLLESGGGEVQPGGSLRLSCAASGFTFSTHGMDWFRQAPGKDLEWVSAIQSGGSWTSYASSVKGRFTISRDNAKNTLYLQMSSLRAEDTAVYWCQNRVTRGQGTLVTV
notes: also called hzC04v5
EC50 (read off the curve) [5]: ~3 nM
EC50 (read off the curve) [6]: ~2 nM

B6: hzCC04v1.2.1 (VHH)
VHH: B5 VHH with Q52N, S53Q, W95Y
notes: also called hzC04v1.2.1
EC50 (read off the curve) [5]: ~2 nM
EC50 (read off the curve) [6]: ~2 nM

B7: hzCC04v1.2 (VHH)
VHH: B5 VHH with Q52N, S53N, W95Y
notes: sheet prints hzCC04v1.2; also called hzC04v1.2
binding result [7]: binds

B8: hzCC04v1 (VHH)
VHH: B5 VHH with Q52N, S53N
notes: sheet prints hzCC04v1; also called hzC04v1
binding result [7]: binds
